Test: soluble on expression in E. coli; label from the status in PepcDB or PDB records

Sequence	soluble on expression in E. coli
MSAQASRQKKSDQEQRAADQALLNAAIEDNAMEQDENFTVIDKLESSGISSGDISKLKEAGYYTYESLAFTTRRELRNVKGISDQKAEKIMKEAMKFVQMGFTTGAEVHVKRSQLVQIRTGSASLDRLLGGGIETGSITEVYGEYRTGKTQLCHSLAVLCQLPIDMGGGEGKCMYIDTNATFRPERIIAIAQRYNMDSAHVLENIAVARAYNSEHLMALIIRAGAMMSESRYAVVIVDCATAHFRNEYTGRGDLAERQMKLSAFLKCLAKLADEYGVAVIITNQVVAQVDGGASMFQADAKKPIGGHIIAHMSTTRLYLRKGKGENRVAKMVQSPNLPEAEATYSITNHGIEDARED	not soluble
MSITLITAAPGAGKTIFAVWNIIKPAVEADRVVYTAGIPELKLPAISLSYSQVKRWADRELVEVENPSGIPIPDDEKPSRLQNITEGALIVIDEVQYLWPASGSREPGEDIKYLTKHRHHGLEFVLITQAPQLIHKNVLAVVDKHIHMLSDWHGRKRYEWPEYCATVRATSSKLKAVSQRYELPKEAYGLYRSASMHI	not soluble
MAHHHHHHMIMKKLIENNVIKLNYENFLTKYKLNSGNEQKDLSDEELYEHFIINTFNYSKPLGCLPPNISNIKEYYLDGINIFEVINYVNISERMYKFENITEEDDKENEDDSKEIFSHSEPDEKHDCEIKSRKNNKNSKISNNNKKDGNNIKSNKYRRFYRFLLYDGKSFIYAYEQEYNEIFTYLESNKYIYPKIILYNKPLIRRGAILLKKNQVIILFKGCIVSGNDTEDNEIEDFPIISESNNINSGVHQNIHDDLYTTRNTYDNKNMTDDSHNLIRKFYYADKGMEKEEYKTYYENTNNCGVLSNTNRSNEYYSRSSMHNNNNYSFNEYAKHNYKYDQNHVKKNIEYYYNKDKNCYITSIDYNNNNNNNNNSINNSNNEYTGNNYNNNNKGNHYYYHNIHNNHMHDTHNSKNYIGSNRYNTDKASYNYYNNHYKNKQHYIDPQRNNYYTHGINHDDYSKENYLNAFEYKNHNSYKEPLRNYSNDHPRNSYNKNKYNIFNENKRNSSSKNNRNSSSKNNRNSSNKNNRNSSKEYFKRNSNKFDNAYDNTYHDNNTRINHHSDFSRKNNDGFYRNNDNNYNNETYVKNHFSNEAKYNAGYQRLSDNLENRNRMNCENNNNYYSTYGHSDYNVNYNNKNNRNIPLSNLNEKNNHIPSNNYYTENYLPEKEGNRNILTNQINNYSINSVNNNFEQINPSTCNYNKNNVFPYNKEDDKNKFVEMKNVEEEYHNDNQERARKNSENSKKLIDLTEGFFSSEFFHKSYECNDVNKNSDIIILDD	soluble
MAEAYLEYLGKHDVLTKLHNRAFYSDELNRLERSALRPVSAIVIDLNGLKEANDKLGHDAGDALLRRVGEVLNGVVTAPNHAARIGGDEFAILLPGADKQVAAAMVDTVYELLKINNQFYSSAPLSLSLGVATTEAGETMESLVRRADMNMYEQKNAYYAALRNRSADNNDTTKGLEHHHHHH	soluble
MGHHHHHHSHMSKESVTVAGIDCGTNSIRLKIARVDADGMHEVVPRILRVIRLGQDVDKTHRFADEALERAYVAAREFAGVIAEHPIDGLRFVATSATRDAENREEFEDEIERILGVRPEVIPGTEEADLSFLGATSVVNRDDLPAPYLVVDLGGGSTELVIGGDGVSAPTTQVQGAFSMNIGSVRMTERHLTNDPPTQTQIDEAVADVDEHIDEAFRTVDAGKARTIIGVSGTVTTMTALAMGLKEYDHTVVDGHRLSFEDAYAVDDKFLRMTRAERREYKTIHPGRIDVVGGGAVVWSRVLARVSEAAKADHGEAIDSFVASEHGLLDGIVLDYGRRLLAQ	soluble
GMDDETLRLQFGHLIRILPTLLEFEKKGYEPSLAEIVKASGVSEKTFFMGLKDRLIRAGLVKEETLSYRVKTLKLTEKGRRLAECLEKCRDVLGS	soluble
MTRLPKLAVFDLDYTLWPFWVDTHVDPPFHKSSDGTVRDRRGQNIQLYPEVPEVLGRLQSLGVPVAAASRTSEIQGANQLLELFDLGKYFIQREIYPGSKVTHFERLHHKTGVPFSQMVFFDDENRNIIDVGRLGVTCIHIRDGMSLQTLTQGLETFAKAQAGL	soluble
MRYDVLARAGFARRGNLHLPHSIVETPVFMPVGTQGTMKGIVPEQLVSMDCRILLCNTYHLGHRPGHERVKAAGGLHKMMNWNRSILTDSGGFQMVSLSKLMTVDENGVNFESPHTGEMMALPPEKSIEIQQALGADIMMQLDHVIHVLTTGDIVKEAMHRSIRWLDRCKVAHTRDDQAMFPILQGGLNLELRKECAKEMAKRAKVGIAIGGLSGGEEKDHFWRVVAACCAALPPHLPRYVMGVGFPVDLVICSFLGADMFDCVYPTRTARFGTAMVRRGGLMQLNQKRYKEDFLPIDKKCECNTCKNYTRAYIHSIVGKETVGCHLVSVHNIKHQLDLMRDVRQAIQSNSVEQFLKQFLYDYYGPIQSENPSKQDSEKMREVPQWVRDAVDHMGYKLDF	not soluble
MKQFGLAAFDELKDGKYNDVNKTILEKQSVELRDQLMVFQERLVEFAKKHNSELQASPEFRSKFMHMCSSIGIDPLSLFDRDKHLFTVNDFYYEVCLKVIEICRQTKDMNGGVISFQELEKVHFRKLNVGLDDLEKSIDMLKSLECFEIFQIRGKKFLRSVPNELTSDQTKILEICSILGYSSISLLKANLGWEAVRSKSALDEMVANGLLWIDYQGGAEALYWDPSWITRQL	soluble
MSLDRVEEQRITIPDFQKLVEAQTGSEISMDDFYPASSVRPISDFVAAIEGEPQVTFTCHQHCGTATYIFLEDDKIIPITRFIDVDRFFEVLEKGKDEIEEGGIAAKARVIARSAIELPKTLDKSEAPESVDIKRILTSIFKERSYTALGEFHYNTLLISCMHFMDPWNFDIDRVRRCVIHYALPDGRIVPFCTMNSIHRADVERHFAKPLNESKEGHHHHHH	not soluble
AHHHHHHGSVLKCVVCGREYPEDEVRYRCECGGLLEVVIDLDKVDTSIFNGKEIKLWKYESWLPVKKRVSLEEGGTPLYRLLNLESDLGVKELYAKNEGANPTGSFKDRGMTVGVSKALELGMDKVICASTGNTSASLAAYAAKAGIKAYVLIPSGKIALGKLAQAIIYGARVVPIKGNFDDALRVVVETSKELGIYMLNSINPFRLEGQKTIAYEIYDQLGKVPDNVILPVGNAGNISAIWKGFKEMYEAGVIDELPRMIGIQAEGASPLAKAWKEKRKFQPEESPETIASAIRIGNPANWIKAWRAVEESGGLFESVSDEEILRAQKLLASREGLFVEPASAASLAGLIKLLESGEISRNESYVLITTGHGLKDPNIVIKNFQVPEPIDPTLEAFKEVIE	soluble
MLSTEDFDFDLPEELIAQTPLKDRASSRLLVVNKETGDMEDKHFHDILDELQPGDALVMNNTRVLPARLYGEKPETGGHLEVLLLTNTEGDTWETLIKPAKRAKVGTEIQFGDGRLKAVVKEELEHGGRIIEFKYDGIFLEILESLGEMPLPPYIKERLDDPDRYQTVYAEENGSAAAPTAGLHFTKELLEEIKAKGVHLVYLTLHVGLGTFRPVSVDNIEEHHMHSEFYRLTEEAAKQLNEVRQAGGRIVAVGTTSIRTLETIGTKFNGEIQADSGWTDIFITPGYQFKVVEAFSTNFHLPKSTLVMLVSAFAGKDLTLAAYQHAIEEKYRFFSFGDAMFIK	not soluble
SAQKPKVDPHVGRLGYLQALVTEFQETQSQDAKEQVLANLANFAYDPSNYEYLRQLQVLDLFLDSLSEENETLVEFAIGGLCNLCPDRANKEHILHAGGVPLIINCLSSPNEETVLSAITTLMHLSPPGRSFLPELTATPVVQCMLRFSLSASARLRNLAQIFLEDFCSPRQVAEARSRQAHSALGIPLPRSVAPRQR	soluble
HGPWPAAGAWELTILHTNDVHSRLEQTSEDSSKCVNASRCMGGVARLFTKVQQIRRAEPNVLLLDAGDQYQGTIWFTVYKGAEVAHFMNALRYDAMALGNHEFDNGVEGLIEPLLKEAKFPILSANIKAKGPLASQISGLYLPYKVLPVGDEVVGIVGYTSKETPFLSNPGTNLVFEDEITALQPEVDKLKTLNVNKIIALGHSGFEMDKLIAQKVRGVDVVVGGHSNTFLYTGNPPSKEVPAGKYPFIVTSDDGRKVPVVQAYAFGKYLGYLKIEFDERGNVISSHGNPILLNSSIPEDPSIKADINKWRIKLDNYSTQELGKTIVYLDGSSQSCRFRECNMGNLICDAMINNNLRHTDEMFWNHVSMCILNGGGIRSPIDERNNGTITWENLAAVLPFGGTFDLVQLKGSTLKKAFEHSVHRYGQSTGEFLQVGGIHVVYDLSRKPGDRVVKLDVLCTKCRVPSYDPLKMDEVYKVILPNFLANGGDGFQMIKDELLRHDSGDQDINVVSTYISKMKVIYPAVEGRIKFSTGSVRASSPSPL	soluble
MQVLLLEDEPRLGQAVARALAAQGYGVRWARSLGEAREAFLELEPDLMVLDVRLPEDEDGGFRFAKEAREAGYKGPILFLTARDALEDRVQGLDLGGDDYLVKPFHLEELLARVRALLRRASEVKASRVRLGPLEVDLAGRGVYLAGRRVDLSLKEFALLETLLLHPGRVFAPEELAERVFGDPEKVGAVKVYVHYLRQKLFPEVVRTVPGGYRLGHEP	soluble
MGSDKIHHHHHHMDTKQLKQDIIDYAYTIGIDSIGFTTADPFDELKQKLEAYHANGYASGFEESDIALRTEPKLSLPTARSIIAIAVGYPNKLKGAPKSVRGDRRGLFARASWGQDYHTIMRKRLDMLAAFIESKVPDVEIKSMVDTGVLSDRAVAERAGLGFVGRNGFVINPKLGTWTYLGEMLVSIPFEPDDPLLDSCGDCTICVDRCPTSALVGNGQLNSQKCISFLTQTKGYMPDQYRYKIGNRLYGCDTCQQVCPKNRGINTEQDDIILEPEILKPRLVPLLRMSNKEFKQTYGHLAGAWRGKKPIQRNAILALAHFNEVDAIPELKKVATTDERPMIRATAYWAIGQILGEEARDFINANYDQEDAEVQNEMIKGLDTRRE	not soluble
MKKSHYSVIIVGGGQAGLAISYLLKQESIDHVIFEKNQIGHAWRNQRWDSFCLVTPNWQCRLPGFPYAGGDDQGFMLKDEIVQYLEDYAASFQAPILEGVEVSKLSQRTDAFEVITSQGIYTADQVVVATGGYHTPKIAAIAKKLPPHIVQLHSVDYKNPETLPDRILLVGTGQSGCQIAEDLHLAGKTVHLATGSAPRSPRRYRGRDVVEWLELMGHYDLPIDEHPQKEMVRHKTNHYLTGRDGGREIDLRQFALEGMHLYGRLKDIDGNQILFADNLKENLDQADATAARIKQSIDEYIAKNQLDAPIEAPYQPVWEPTSIPLTLNIDEIDAVIWSTGFNFNYAWVDVPVFNSMGEPLHNRGVTNVAGLYFLGLPWLYTWGSGRFSGVARDAEYLAEKIRETLPANQINPCTVALEHHHHHH	not soluble
MSKAFVDGLLQSSKVVVFSKSYCPYCHKARAALESVNVKPDALQWIEIDERKDCNEIQDYLGSLTGARSVPRVFINGKFFGGGDDTAAGAKNGKLAALLKETGAL	not soluble
EACGYSDRVLQLTLGNSTITTQEAANSVVAYGRWPEYLRDSEANPVDQPTEPDVAACRFYTLDTVSWTKESRGWWWKLPDALRDMGLFGQNMYYHYLGRSGYTVHVQCNASKFHQGALGVFAVPEMCLAGDSNTTTMHTSYQNANPGEKGGTFTGTFTPDNNQTSPARRFCPVDYLLGNGTLLGNAFVFPHQIINLRTNNCATLVLPYVNSLSIDSMVKHNNWGIAILPLAPLNFASESSPEIPITLTIAPMCCEFNGLRNITLPRLQ	soluble
MKALTARQQEVFDLIRDHISQTGMPPTRAEIAQRLGFRSPNAAEEHLKALARKGVIEIVSGASRGIRLLQEEEEGLPLVGRVAADEPLLAQQHIEGHYQVDPSLFKPNADFLLRVSGMSMKDIGIMDGDLLAVHKTQDVRNGQVVVARIDDEVTVKRLKKQGNKVELLPENSEFKPIVVDLRQQSFTIEGLAVGVIRNGDWL	soluble
MKRRRKSGEKVQMHRFALPLCYGSEAPYYYYEVAPHEREERFHLTSELCVMDDEHYFIRGCLEIPIIDYHENFIWTVWVSLSKESYDEVLEKWDERGRENSDPYFGWLSVEMPVYPETLNLKTNVHIREVGTAPYVELEPTEHPLAIEQRNGITLERVKEIQEMIQRHS	not soluble
